Measured values reported in patent US20220411514A1, “ANTI-GAL3 ANTIBODIES AND METHODS OF USE FOR INSULIN RESISTANCE” (TrueBinding, Inc., priority 2021, published 2022).
Values belong to the molecule of their own block, whether it stands above or below them.

What was measured:
Human Gal3 peptides [1] = target: T1, Human Gal3 peptides (Homo sapiens, UniProt P17931); assay: Gal3 peptide binding ELISA (Example 8); conditions: antibody 5 μg/mL
T1 construct: purchased LifeTein custom order
Method: (§1) Gal3 peptide binding activity of additional exemplary anti-Gal3 antibodies was assessed with the same peptides as described in FIG. 18 (SEQ ID NOs: 3-26). Human Gal3 peptides (LifeTein, custom order) and human Gal3 proteins (R&D Systems, 8259-GA; TrueBinding, QCB200349) were diluted in PBS (Corning, 21-030-CM) to concentrations of at least 100 μg/mL (peptides) or 1 μg/mL (proteins), and added to the wells of several 96-well ELISA plates (Thermo Fisher, 44-2404-21). After incubating the plates at 4° C. overnight, the plates were washed three times with PBST (PBS with 0.05% Tween 20 [VWR, 0777]). The plates were then blocked for an hour with 2% BSA (EMD Millipore, 126609) in PBST at room temperature with gentle rocking. Thereafter, the 2% BSA in PBST was discarded and Gal3-binding antibodies (reformatted hIgG4 [S228P]) were diluted in 2% BSA in PBST to concentrations of 5 μg/mL and added to the wells. The plates were incubated for an hour at room temperature with gentle rocking and then washed three times with PBST. Afterwards, Peroxidase AffiniPure F(ab′)2 Fragment Goat Anti-Human IgG (H+L) polyclonal antibody (Jackson ImmunoResearch, 109-036-003), was diluted in 2% BSA in PBST (1:4000) and added to the wells. The plates were incubated for 1 hour at room temperature with gentle rocking and then washed three times with PBST. TMB substrate (Thermo Scientific, 34029) was then added to each well. The reaction was stopped with 1M HCl (JT Baker, 5620-02) and read using a plate reader (Molecular Devices) at absorbance of 450 nm.

hGal3 peptide = target: T2, hGal3 peptide (Homo sapiens, UniProt P17931); assay: Gal3 peptide library binding ELISA (Example 2)
T2 construct: a library of 24 amino acid peptides representing portions of Gal3
Method: To identify the epitopes to which Gal3 antibodies with and without Gal3-INSR blocking activity bound, a library of 24 amino acid peptides representing portions of Gal3, depicted in FIG. 18, was produced and the ability of each peptide to bind Gal3 antibodies was evaluated by ELISA. At least 2 μg/ml of hGal3 peptide in 50 μl of PBS or 0.1 μg/ml of full-length human Gal3 protein (GenScript) and human Galectin-3 protein (Acro Biosystems, GA3-H5129) were diluted in PBS (Corning, 21-030-CM) to concentrations of at least 2 μg/ml or 0.1 μg/ml, respectively, and added to the wells of a 96-well ELISA plate (Thermo Fisher, 44-2404-21). After incubating the plate at 4° C. overnight, the plate was washed three times with PBST (PBS with 0.05% Tween 20 [VWR, 0777]). The plate was then blocked for an hour with 2% BSA (EMD Millipore, 126609) in PBST at room temperature with gentle rocking. Thereafter, the 2% BSA in PBST was discarded and human Galectin-3 hybridoma supernatants or antibodies were diluted in 2% BSA in PBST to concentrations of at least 0.1 μg/ml and added to the wells. The plate was incubated for an hour at room temperature with gentle rocking and then washed three times with PBST. Afterwards, Goat Anti-Mouse IgG-HRP (Jackson ImmunoResearch, 115-036-1461) or Goat Anti-Rat IgG HRP (Abcam, ab205720) diluted in 2% BSA in PBST (1:4000) were added to the wells. The plate was incubated for 30 minutes to 1 hour at room temperature with gentle rocking and then washed three times with PBST. TMB substrate (Thermo Scientific, 34029) was then added to each well. The reaction was stopped with 1M HCl (JT Baker, 5620-02) and read using a plate reader (Molecular Devices) at absorbance of 450 nm.

Human Gal3 peptides [2] = assay: Gal3 peptide binding ELISA (Example 8); conditions: antibody 5 μg/mL
Method: as §1

human Gal3 = target: T3, human Gal3 (Homo sapiens, UniProt P17931); assay: Epitope binning, sandwich format, SPR Carterra LSA (Example 8); assay type: binding
T3 construct: 6xHis (linker-spaced) (C); purchased AcroBio (Acro Biosystems) GA3-H5129
T3 sequence (P17931 whole entry): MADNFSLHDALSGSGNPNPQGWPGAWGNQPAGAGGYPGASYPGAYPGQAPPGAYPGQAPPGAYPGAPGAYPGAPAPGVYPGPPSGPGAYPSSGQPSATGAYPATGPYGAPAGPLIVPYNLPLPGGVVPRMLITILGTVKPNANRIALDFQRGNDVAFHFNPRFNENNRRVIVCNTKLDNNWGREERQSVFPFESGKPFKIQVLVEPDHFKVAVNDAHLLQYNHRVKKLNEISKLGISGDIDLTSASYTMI
Method: The epitope binning assay was done in a sandwich format on the high-throughput SPR-based Carterra LSA unit (CarterraBio, Salt Lake City, Utah). First, the purified antibodies were diluted to 10 μg/ml concentration in 10 mM NaOAc (pH 5.0) and then were covalently coupled via amine group to HC200M chip activated by EDC and S-NHS to immobilize antibodies to different positions of a 384-spot array. One hundred thirty-eight binning cycles were run on the array of immobilized antibodies. In each cycle, first, human Gal3 (AcroBio GA3-H5129) was injected over the entire array to bind to different antibodies (primary antibody), followed by one antibody (secondary antibody) selected among the panel of 150 anti-GAL3 antibodies tested. At the end of each cycle, the array was regenerated by 10 mM Glycine (pH 2.0) to remove bound antigen and secondary antibody from the array. The data analysis was done using the Epitope software by CarterraBio.

binding to Gal3 peptide 6 (SEQ ID NO: 8) (Human Gal3 peptides [1]): bound
binding to Gal3 peptide 6 (amino acids 51-70, SEQ ID NO: 8) (hGal3 peptide): bound
B1: 2D10.2B2: anti-Gal3 antibody (antibody)
heavy: QVQLQQSGPELVKPGASVKISCKASGYTFTDYYINWVKQRPGQGLEWIGWIYPGSNDTKYNEKFKGKATLTVDTSSSTAYMQLGSLTSEDSAVYFCANYFGCSGWFFDVWGTGTTVTVSSAKTTPPSVYPLAPVCGDTTGSSVTLGCLVKGYFPEPVTLTWNSGSLSSGVHTFPAVLQSDLYTLSSSVTVTSSTWPSQSITCNVAHPASSTKVDKKIEPRGPTIKPCPPCKCPAPNAAGGPSVFIFPPKIKDVLMISLSPIVTCVVVDVSEDDPDVQISWFVNNVEVHTAQTQTHREDYNSTLRVVSALPIQHQDWMSGKEFKCKVNNKDLGAPIERTISKPKGSVRAPQVYVLPPPEEEMTKKQVTLTCMVTDFMPEDIYVEWTNNGKTELNYKNTEPVLDSDGSYFMYSKLRVEKKNWVERNSYSCSVVHEGLHNHHTTKSFSRTPGK
light: DIVMTQAAFSNPVTLGTSASISCRSSKSLLHSDGITYLYWYLQRPGQSPQLLIYRMSNLASGVPDRFSGSGSGTDFTLRISRVEAEDVGVYYCAQMIEFPLTFGAGTILELKRADVAPTVSIFPPSSEQLTSGGASVVCFLNNFYPKDINVKWKIDGSERQNGVLNSWTDQDSKDSTYSMSSTLTLTKDEYERHNSYTCEATHKTSTSPIVKSFNRNEC
modifications: 2D10.2B2 heavy chain peptide sequence; 2D10.2B2 light chain peptide sequence
notes: anti-Gal3 antibody

binding to Gal3 peptide 2 (SEQ ID NO: 4) (Human Gal3 peptides [1]): bound
binding to Gal3 peptide 3 (SEQ ID NO: 5) (Human Gal3 peptides [1]): bound
binding to Gal3 peptide 17 (SEQ ID NO: 19) (Human Gal3 peptides [1]): bound
binding to Gal3 peptide 7 (amino acids 61-80, SEQ ID NO: 9) (hGal3 peptide): bound
B2: 7D8.2D8: anti-Gal3 antibody (antibody)
heavy: EVQLVESGGGLVKPGGSLKLSCAASGFTFSSYAMSWVRQTPEKRLEWVATISDGGIYTYYPDNVKGRFTISRDNAKNNLFLQMSHLKSEDTAMYYCVRDGGYWGQGTTLTVSSAKTTPPSVYPLAPVCGDTTGSSVTLGCLVKGYFPEPVTLTWNSGSLSSGVHTFPAVLQSDLYTLSSSVTVTSSTWPSQSITCNVAHPASSTKVDKKIEPRGPTIKPCPPCKCPAPNAAGGPSVFIFPPKIKDVLMISLSPIVTCVVVDVSEDDPDVQISWFVNNVEVHTAQTQTHREDYNSTLRVVSALPIQHQDWMSGKEFKCKVNNKDLGAPIERTISKPKGSVRAPQVYVLPPPEEEMTKKQVTLTCMVTDFMPEDIYVEWTNNGKTELNYKNTEPVLDSDGSYFMYSKLRVEKKNWVERNSYSCSVVHEGLHNHHTTKSFSRTPGK
light: DVLMTQTPLSLPVSLGDQASISCRSSQSIVHSNGNTYLEWYLQKPGQSPKLLIYKVSNRFSGVPDRFSGSGSGTDFTLKISRVEAEDLGVYYCFQGSHVPLTFGAGTKLELKRADVAPTVSIFPPSSEQLTSGGASVVCFLNNFYPKDINVKWKIDGSERQNGVLNSWTDQDSKDSTYSMSSTLTLTKDEYERHNSYTCEATHKTSTSPIVKSFNRNEC
modifications: 7D8.2D8 heavy chain peptide sequence; 7D8.2D8 light chain peptide sequence
notes: anti-Gal3 antibody

binding to Gal3 peptide 2 (SEQ ID NO: 4) (Human Gal3 peptides [1]): bound
binding to Gal3 peptide 3 (SEQ ID NO: 5) (Human Gal3 peptides [1]): bound
binding to Gal3 peptide 4 (SEQ ID NO: 6) (Human Gal3 peptides [1]): bound
binding to Gal3 peptide 7 (amino acids 61-80, SEQ ID NO: 9) (hGal3 peptide): bound
B3: 15F10.2D6: anti-Gal3 antibody (antibody)
heavy: EVQLVESGGGLVKPGGSLKLSCAASGFAFSSYAMSWVRQTPEKRLEWVATISDGGVYTYYTDHVKGRFTISRDNAEDNLYLQMSHLKSEDTAMYYCVRDGGYWGQGTTLTVSSAKTTPPSVYPLAPVCGDTTGSSVTLGCLVKGYFPEPVTLTWNSGSLSSGVHTFPAVLQSDLYTLSSSVTVTSSTWPSQSITCNVAHPASSTKVDKKIEPRGPTIKPCPPCKCPAPNAAGGPSVFIFPPKIKDVLMISLSPIVTCVVVDVSEDDPDVQISWFVNNVEVHTAQTQTHREDYNSTLRVVSALPIQHQDWMSGKEFKCKVNNKDLGAPIERTISKPKGSVRAPQVYVLPPPEEEMTKKQVTLTCMVTDFMPEDIYVEWTNNGKTELNYKNTEPVLDSDGSYFMYSKLRVEKKNWVERNSYSCSVVHEGLHNHHTTKSFSRTPGK
light: DVLMTQTPLSLPVSLGDQASISCRSSQSIVHNNGNTYLEWYLQKPGQSPKLLIYKVSNRFSGVPDRFSGSGSGTDFTLKISRVEAEDLGVYYCFQGSHVPLTFGGGTKLELKRADVAPTVSIFPPSSEQLTSGGASVVCFLNNFYPKDINVKWKIDGSERQNGVLNSWTDQDSKDSTYSMSSTLTLTKDEYERHNSYTCEATHKTSTSPIVKSFNRNEC
modifications: 15F10.2D6 heavy chain peptide sequence; 15F10.2D6 light chain peptide sequence
notes: anti-Gal3 antibody

binding to Gal3 peptide 1 (SEQ ID NO: 3) (Human Gal3 peptides [1]): bound
binding to Gal3 peptide 7 (SEQ ID NO: 9) (Human Gal3 peptides [1]): bound
binding to Gal3 peptide 8 (SEQ ID NO: 10) (Human Gal3 peptides [1]): bound
binding to Gal3 peptide 1 (amino acids 1-20, SEQ ID NO: 3) (hGal3 peptide): bound
binding to Gal3 peptide 7 (amino acids 61-80, SEQ ID NO: 9) (hGal3 peptide): bound
B4: 20D11.2C6: anti-Gal3 antibody (antibody)
heavy: EVQLQQSGPELVKPGASVKISCKASGYTFTDFYINWVKQSHGKSLEWIGDINPKNGGINYNPKFKIKATLTVDKSSSTSYMDLRGLTSEDSAVYYCTSGYGFPYWGQGTLVTVSAAKTTPPSVYPLAPVCGDTTGSSVTLGCLVKGYFPEPVTLTWNSGSLSSGVHTFPAVLQSDLYTLSSSVTVTSSTWPSQSITCNVAHPASSTKVDKKIEPRGPTIKPCPPCKCPAPNAAGGPSVFIFPPKIKDVLMISLSPIVTCVVVDVSEDDPDVQISWFVNNVEVHTAQTQTHREDYNSTLRVVSALPIQHQDWMSGKEFKCKVNNKDLGAPIERTISKPKGSVRAPQVYVLPPPEEEMTKKQVTLTCMVTDFMPEDIYVEWTNNGKTELNYKNTEPVLDSDGSYFMYSKLRVEKKNWVERNSYSCSVVHEGLHNHHTTKSFSRTPGK
light: DIQMNQSPSSLSASLGDTITITCRASQNIYIWLSWYQQKPGNIPKLLIYKASNLHTGVPSRFSGSGSGTDFTLTISTLQPEDIATYFCLQGQSYPLTFGAGTKLEMKRADVAPTVSIFPPSSEQLTSGGASVVCFLNNFYPKDINVKWKIDGSERQNGVLNSWTDQDSKDSTYSMSSTLTLTKDEYERHNSYTCEATHKTSTSPIVKSFNRNEC
modifications: 20D11.2C6 heavy chain peptide sequence; 20D11.2C6 light chain peptide sequence
notes: anti-Gal3 antibody

binding to any of the tested Gal3 peptides (Human Gal3 peptides [2]): not found to bind
epitope bin (mutual competitive binding for Gal3) (human Gal3): CRD
B5: 847.11D6: anti-Gal3 antibody (antibody, V domains shown)
VH: EVKLQQSGPELMKPGTSMKISCKASGYSFTGYTMNWVKQSHGKNLEWIGLINPYNGGTNYNQKFRGKATLSVDKSSNTAYMELLSLTSEDSAVYYCARKDDYYGSSPYALDYWGQGTSVTVSS
VL: DIVMTQSPASLAVSLGQRATISCRASESVENHVNSFMHWFQQKPGQPPKLLIYRASNLQSGIPARFSGSGSRTDFTLTINPVEADDVATYYCQQNNEVPYTFGGGTKLEIK
